Where “and” joins values, the source holds several entries; their conditions need not be identical. Equal entries are not always repeated.
Assays:
[1] = target: recombinant TC-2Δ11 deletion mutant (rTC-2Δ11) (Trichomonas vaginalis) (UniProt A2FXT2); assay: SEC; analytical SEC, Superdex 200 pg HiLoad 26/600, 5 mg protein loaded, 50 mM Tris-HCl pH 8.0, 100 mM NaCl, 0.02% NaN3, room temperature (23-25°C); samples stored 1 month at 4°C
[2] = target: recombinant TC-2Δ11 deletion mutant (rTC-2Δ11) (Trichomonas vaginalis) (UniProt A2FXT2); assay: SEC; analytical SEC, Superdex 200 pg HiLoad 26/600, 5 mg protein loaded, 50 mM Tris-HCl pH 8.0, 100 mM NaCl, 0.02% NaN3, room temperature (23-25°C); samples stored 3 months at 4°C
A2FXT2 = assay: SEC; analytical SEC, Superdex 200 pg HiLoad 26/600, 5 mg protein loaded, 50 mM Tris-HCl pH 8.0, 100 mM NaCl, 0.02% NaN3, room temperature (23-25°C); samples stored 1 month at 4°C
[3] = target: the molecule itself; assay: SEC; analytical SEC, Superdex 200 pg HiLoad 26/600, 5 mg protein loaded, 50 mM Tris-HCl pH 8.0, 100 mM NaCl, 0.02% NaN3, room temperature (23-25°C); samples stored 3 months at 4°C
[4] = target: the molecule itself; assay: SEC; analytical SEC, Superdex 200 pg HiLoad 26/600, 5 mg protein loaded, 50 mM Tris-HCl pH 8.0, 100 mM NaCl, 0.02% NaN3, room temperature (23-25°C); samples stored 1 month at 4°C

Row | Molecule | Area (%) of the dimer peak [1] [%] | stoichiometry N [1] | Area (%) of the dimer peak [2] [%] | stoichiometry N [2] | Area (%) of the peak of high molecular weight aggregates (A2FXT2) [%] | stoichiometry N [3] | stoichiometry N [4]
1 | recombinant TC-2Δ11 deletion mutant (rTC-2Δ11) (from UniProt A2FXT2 12-91) (domain or fragment) | 19.5 | 2 | 25.8 | 2 |  |  | 
2 | recombinant wild-type trichocystatin-2 (rTC-2) (natural protein, trichocystatin-2 (TC-2), Trichomonas vaginalis, TrichDB TVAG_272260; 10-kDa cystatin of the stefin type; the TC-2 gene cloned in pCold I as in Puente-Rivera et al., 2014; No tag removal is described; Mixture of monomer, dimer and higher forms in SEC) MSCGGGCCCGAAKPANVQDEHVIQAFKDAIALGNQKNGTTLEYIQLLSATQKVVSGYIFEGVVKTNDGDYKVKIWCKPGNTEKELQLFEKA |  |  |  |  | 2.2 | 2 and 4 | 2
